Data: patent publication US7076372 (Takeda / Millennium, dated 2006)

Target: the molecule itself
Test: X-ray crystal structure, two MvaS molecules in the asymmetric unit

B1: MvaS from E. faecalis (HMG-CoA Synthase), full-length with non-cleavable carboxy-terminal six histidine tag, seleno-methionine labeled (enzyme)
chain: MTIGIDKISFFVPPYYIDMTALAEARNVDPGKFHIGIGQDQMAVNPISQDIVTFAANAAEAILTKEDKEAIDMVIVGTESSIDESKAAAVVLHRLMGIQPFARSFEIKEACYGATAGLQLAKNHVALHPDKKVLVVAADIAKYGLNSGGEPTQGAGAVAMLVASEPRILALKEDNVMLTQDIYDFWRPTGHPYPMVDGPLSNETYIQSFAQVWDEHKKRTGLDFADYDALAFHIPYTKMGKKALLAKISDQTEAEQERILARYEESIVYSRRVGNLYTGSLYLGLISLLENATTLTAGNQIGLFSYGSGAVAEFFTGELVAGYQNHLQKETHLALLDNRTELSIAEYEAMFAETLDTDIDQTLEDELKYSISAINNTVRSYRNKGHHHHHH
modifications: selenomethionine (MSE) in place of methionine, 100% incorporation by mass spectrometry
notes: Crystallised as a complex with the small molecule HMG-CoA; There are two MvaS molecules in the asymmetric unit, described as a dimer; Coordinates lack residues 1 and 384-391 (molecule A) and residues 1 and 388-391 (molecule B); also called MvaS Ef
B1: binds.
